Data published in patent publication US20130136756A1.

Columns and labels:
24P4C12 (human) [1] = target: 24P4C12 (human) (UniProt Q53GD3); test: FACS on LNCaP cells, ADC at 0.011 nM
24P4C12 (human) [2] = target: 24P4C12 (human) (UniProt Q53GD3); test: FACS on LNCaP cells, ADC at 0.033 nM
24P4C12 (human) [3] = target: 24P4C12 (human) (UniProt Q53GD3); test: FACS on LNCaP cells, ADC at 0.098 nM
24P4C12 (human) [4] = target: 24P4C12 (human) (UniProt Q53GD3); test: FACS on LNCaP cells, ADC at 0.293 nM
24P4C12 (human) [5] = target: 24P4C12 (human) (UniProt Q53GD3); test: FACS on LNCaP cells, ADC at 0.878 nM
24P4C12 (human) [6] = target: 24P4C12 (human) (UniProt Q53GD3); test: FACS on LNCaP cells, ADC at 2.634 nM
24P4C12 (human) [7] = target: 24P4C12 (human) (UniProt Q53GD3); test: FACS on LNCaP cells, ADC at 7.901 nM
24P4C12 (human) [8] = target: 24P4C12 (human) (UniProt Q53GD3); test: FACS on LNCaP cells, ADC at 23.704 nM
24P4C12 (human) [9] = target: 24P4C12 (human) (UniProt Q53GD3); test: FACS on LNCaP cells, ADC at 71.111 nM
24P4C12 (human) [10] = target: 24P4C12 (human) (UniProt Q53GD3); test: FACS on LNCaP cells, ADC at 106.667 nM
24P4C12 (human) [11] = target: 24P4C12 (human) (UniProt Q53GD3); test: FACS on LNCaP cells, ADC at 160.000 nM
24P4C12 (human) [12] = target: 24P4C12 (human) (UniProt Q53GD3); test: FACS saturation binding on LNCaP cells (endogenous 24P4C12), one site fit

Sequence of UniProt Q53GD3 (Q53GD3 whole entry): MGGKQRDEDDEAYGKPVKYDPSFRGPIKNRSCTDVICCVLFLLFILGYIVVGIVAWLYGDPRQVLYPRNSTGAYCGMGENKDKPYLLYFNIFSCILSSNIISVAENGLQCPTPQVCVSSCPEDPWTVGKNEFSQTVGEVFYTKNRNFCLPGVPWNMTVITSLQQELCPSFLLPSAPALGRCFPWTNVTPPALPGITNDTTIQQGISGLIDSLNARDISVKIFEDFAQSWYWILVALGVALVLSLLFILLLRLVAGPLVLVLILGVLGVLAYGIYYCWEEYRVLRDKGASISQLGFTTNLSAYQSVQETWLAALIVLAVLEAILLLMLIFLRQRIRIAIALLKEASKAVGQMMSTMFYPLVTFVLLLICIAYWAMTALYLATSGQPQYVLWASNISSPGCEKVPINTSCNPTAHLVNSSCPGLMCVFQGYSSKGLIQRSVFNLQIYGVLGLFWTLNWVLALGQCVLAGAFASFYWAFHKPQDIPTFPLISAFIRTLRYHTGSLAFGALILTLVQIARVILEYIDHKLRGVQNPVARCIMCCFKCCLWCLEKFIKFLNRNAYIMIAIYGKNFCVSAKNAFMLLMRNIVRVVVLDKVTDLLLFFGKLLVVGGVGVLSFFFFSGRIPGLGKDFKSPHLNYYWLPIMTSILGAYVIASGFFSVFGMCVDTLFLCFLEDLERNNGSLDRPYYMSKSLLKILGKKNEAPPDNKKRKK

MFI (24P4C12 (human) [1]): 7 MFI
MFI (24P4C12 (human) [2]): 9 MFI
MFI (24P4C12 (human) [3]): 15 MFI
MFI (24P4C12 (human) [4]): 28 MFI
MFI (24P4C12 (human) [5]): 54 MFI
MFI (24P4C12 (human) [6]): 70 MFI
MFI (24P4C12 (human) [7]): 86 MFI
MFI (24P4C12 (human) [8]): 97 MFI
MFI (24P4C12 (human) [9]): 108 MFI
MFI (24P4C12 (human) [10]): 114 MFI
MFI (24P4C12 (human) [11]): 116 MFI
Kd (24P4C12 (human) [12]): 1.05 nM
B1: Ha5-1(5)2.1vcMMAE (protein)
heavy: QVQLVESGGGVVQPGRSLRLSCAASGFTFSSYGMHWVRQAPGKGLEWVAVMSYDGSKKFYTDSVKGRFTISRDNSKNTLYLQMNSLRAEDTAVYYCARDGGDYVRYHYYGMDVWGQGTTVTVSSASTKGPSVFPLAPCSRSTSESTAALGCLVKDYFPEPVTVSWNSGALTSGVHTFPAVLQSSGLYSLSSVVTVPSSNFGTQTYTCNVDHKPSNTKVDKTVERKCCVECPPCPAPPVAGPSVFLFPPKPKDTLMISRTPEVTCVVVDVSHEDPEVQFNWYVDGVEVHNAKTKPREEQFNSTFRVVSVLTVVHQDWLNGKEYKCKVSNKGLPAPIEKTISKTKGQPREPQVYTLPPSREEMTKNQVSLTCLVKGFYPSDIAVEWESNGQPENNYKTTPPMLDSDGSFFLYSKLTVDKSRWQQGNVFSCSVMHEALHNHYTQKSLSLSPGK
light: DIQMTQSPSTLSASIGDRVTITCRASQGISYYLAWYQQKPGKIPKLLIYDTSSLQSGVPSRFSGSRSGTDLSLTISSLQPEDVATYYCQRYDSAPLTFGGGTKVEIKRTVAAPSVFIFPPSDEQLKSGTASVVCLLNNFYPREAKVQWKVDNALQSGNSQESVTEQDSKDSTYSLSSTLTLSKADYEKHKVYACEVTHQGLSSPVTKSFNRGEC
modifications: vcMMAE (Val-Cit linker, monomethyl auristatin E) on cysteine thiols after partial TCEP reduction; p about 3.6 per antibody; positions not given
